According to the nanobody polyreactivity screen of Harvey et al. (2022):

Assay: yeast display, Sf9 membrane polyspecificity reagent, FACS + sequencing; frameworks hold sequencing errors
How it was run: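 Galactose-induced (36–48 hours) yeast carrying a synthetic nanobody display library were exposed to 10% biotinylated, detergent-solubilized Sf9 membrane reagent at 4 °C for 1 hour. FACS followed streptavidin microbead enrichment, using low and high (top ~1%) gates for expression (anti-HA) and reagent binding (streptavidin). Colony PCR, MiSeq 2 × 250 sequencing and CDR-length filtering followed. Labels for polyreactivity reflect the gate of origin.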

Row | Sequence | polyreactivity (PSR sort gate)
1 | QVQLVESGGGLVQAGGSLRLSCAASGITFFIYAMGWYRQAPGKQRELFAAIRSGGSTNYADSVKGRFTISRDNAQNTVYLQMNSLKPEDTSVFYCAADVYGTVRRVGWYYVGEGYDYWGQGTQVTVSS | low polyreactivity
2 | QVQLVESGGGLVQAGGSLRLSCAASGRIFSSYDMGWYRQAPGKEPELVAAISRSGARTYYADSVKGRFTISRDNAKNTVYLQMNSLKPEDTAVYYCAAEFRSWGGYRYRFNYWGQGTQVTVSS | high polyreactivity
3 | QVQLVESGGGLVQAGGSLRLSCAASGGIILPYAMGWYRQAPGKERELVAAISGRTGSTNYADSVKGRFTISRDNAKNTVYLQMNSLKPEDTAVYYCAARGVRSYFFPYNYWGQGTQVTVSS | high polyreactivity
4 | QVQHVEKGGALVQAGGSLRLSCAASGFTVDWYAMGWYIQAPGKERELVAAITTSGGTKYYADSVKGRFTISRDNAKNTVYLLMNCLNPEDTAVYYCAAEGTWSRNYDYWGQGTQVTVSS | low polyreactivity
5 | QVQLVESGGGLVQAGGSLRLSCAASGSTFWYYGMGWYRQAPGKERELVAAITRGGSTYYADSVKGRFTISRDNAKNTVYLQMNSLKPEDTAVYYCARAPSYSTGVSIRDYWGQGTQVTVSS | high polyreactivity
6 | QVQLVESGGGLVQAGGSLRLSCAASGFIFGGNAMGWYRQAPGKERELVAAISSGGRTYYADSVKGRFTISRDNAKNTVYLQMNSLKPEDTAVYYCNAYSYHRGRDYWGQGTQVTVSS | low polyreactivity
7 | QVQLVESGGGLVQAGGSLRLSCAASGYTFARNAMGWYIQAPGKERELVAAISSSGGRTYYADSVKGRFTISRDNAKNTVYLQMNSLKPEDTAVYYCNTGYYRTGSYDYWGQGTQVTVSS | high polyreactivity
8 | QVQLVESGGGLVQAGGSLRLSCAASGRTFAYNAMGWYRQAPGKERELVASITSGGSTNYADSVKGRFTISRDNAKNTVYLQMNSLKPEDTAVFYCNKDGKYHRVLYDYWGQGTQVTVSS | low polyreactivity
9 | QVQLVDSGGGLVQAGGSLRLSCASTGSIYRYAIGWNRQSPGKERELVAAINFNGGRTYYADSVKGRFTISSDNAKNTVYLQMNSLKPEDTAVYYCAAVRSSNQGGFDYWGQGTLVTVSS | high polyreactivity
10 | QVQLVESGGGLVQAGGSLRLSCAASGSTFELYAMGWYRQAPGKERDFVAAITYDSTYYADSVKGRFTISRDNAKNTVYLQMNSLKPEDTAVYYCAAAYWHYYYGWDMYYWGQGTQVTVST | high polyreactivity
11 | HVQLVESGGGLVQAGGSLRLSCAASGRNYYTYTMGRSRQAPGKEKQLVATITVGTRTNYADSVKGRFTISRDNAQNTVYLQMNSLKRVDTAVYYCNAEWSSKRFTGDDYWGQGTQVTVSS | low polyreactivity
12 | QVQLVESGGGLVQAGGSLRLSCAASGFISAYYALGWSRQAPGKERELVAGITRGGNTYYADSVKGRFTISRDNAKNTVYLQMNSLKPEDTAVYYCAAEGSHNSEYWGQVTQVTVSS | high polyreactivity
13 | QVQLVESGGGLVQAGGSLRLSCAASGSIFAGYAMGWYRQAPGKERELVATITSGGSTNYADSVKGRFTISRDNAKNTVYFHMNSLKPEVTAVYYCAADVEDSIPSSYTGGEYDYWGQCTQVTVSS | low polyreactivity
14 | QVQHVQSGGGLVQAGGSLRLSCAASGSTFPGYAMGWYRQDPGKEREFVAAISTSGGRTYYADSVKGRFTISRDNAKNTVYVQMNSLKPEDTAVYFCNADRYSQYSHSRYDYWGQGTQVTVSS | high polyreactivity
15 | QVQLVESGVGLVQAGGSLRLSSAASGSIFAHNAMGWYRQEPGKEREFVATITYSGGTTYYADSVKGRFTISRDNAKNTVYLQMNILKPEDTAVYYCAKLRYPYLFWDDSEYWGQGTQVTVSS | low polyreactivity
16 | QVQLVESGGGLVQAGGSLRLSCAASGRIFSGYTMGWYRQAPGKERELVAAITRSGGSTYYADSVKGRFTISRDNAKNTVYLQMNSLKPEDTAVYYCNKVSYRRMDSWGQGTQVTVSS | high polyreactivity
17 | QVQLVESGGGLVQAGGSLRLSCAASGRTFTYYAMGWSRQAPGKERECVSAISSTGTSTYYADSVKGRFTISRDNAKNTVYLQMNSLKPEDTAVYYCNARVATYRLHSKFYYWGQGTQVTVSS | high polyreactivity
18 | QVQLVESGGGLVQAGGSLRLSCAASGFTFYWYAMGWYRQAPGKEREFVAAIDQSGGSTYYADSVKGRFTISRDNAKNTVYLQMNSLKPEDTAVYYCAARYILWDGDSWTEFDYWGQGTQVTVSS | low polyreactivity
19 | QVQLVESGGGLVQAGGSLRLSCAASGYTFSYYDMGWYRQAPGKERELVAGISKRGGSTRYADSVKGRFTISRDNAKNTVYLQMNSLKPEDTAVYYCNRLPYLHYAGRLTNYDYWGQGTQVTVSS | high polyreactivity
20 | QVQLVESGGGLVQAGGSLRLSCAASGLTSLGNAMGWYRQAPGKERELVAAITRTGTSTYYADSVKGRFTISRDNAKNTVYLQMNSLKPEDTAVYYCAALDRYSTEYKYQLYKQEYDYWGQGTQVTVSS | low polyreactivity
21 | QVQLVESGGGLVQAGGSLRLSCAASGSTFSGYAMGWYRQAPGKERELVGAISSSGGRTNYADSVKGRFTISRDNAKNTVYLQMNSLKPEDTAVYYCASVGPRTEYSGYRYYYWGQGTQVTVSS | high polyreactivity
22 | QVQLVESGGGLVQAGGSLRLSCAASGSTFNSYAMGWYRQAPGKERELVAAITSSVGSTYYADSVKGRFTISRDNAKNTVYLQMNSLKPEDTAVYYCAADYFSYWYFSGYDYWGQGTQVTVSS | low polyreactivity

Row | Sequence | polyreactivity (PSR sort gate)
23 | QVQLVESGGGLDQAGGSLRLSCAASGFTFVGNAMGWYRQAPGKERELVATITSGGNTKYADSVKGRFTISRDNAKNTVYLQMNSLKPEDTAVYYCAAAKYNYRRFNYWGQGTQVTVSS | low polyreactivity
24 | QVQLEESGGGLVQAGGSLRLSCAASGYTFYLYAMAWYRQSPGKERELVAAISTNGGRTYYADSVKGRFTISRDNAKNTVYLQMNSLKPEDTAVYYCAVRSRGTAPQYYYWGQGTQVTVSS | high polyreactivity
25 | QVQLEESGGGLVQAGGSLRLTCAASGRIFYRNSMGWYRQATGKERELVATISGRGGSTYYADSVKGRFTISRDNAKNTDYLQMNSLKPEDTAVYYCAVRNHGSVRWTGESWGQGTQVTVSS | high polyreactivity
26 | QVQLVESGGGLVQAGGSLRLSCAASGRTFARNAMGWYRQAPGKERELVASINRGGRTNYADSVKGRFTISRDNAKNTVYLQMNSLKPEDTAVYYCAKYILGVGPFFSTYDYWGQGTQVTVSS | high polyreactivity
27 | QVQLVESGGGLVQAGGSLRLSCAASGRIFLWYAMGWYRQAPGKERELVASITRSGVTTYYADSVKGRFTISRDNAKNTVYLQMKSLKPEDTAVYYCNKDFRGDAIKLDVNYWGQGTQVTVSS | low polyreactivity
28 | QVQLVESGGGLVQAGGSLRLSCAASGRTFSGYAMGWYRQAPGKERELVAAITGRGGSTYYADSVKGRFTISRDNAKNTVYLQMNSLKPEDTAVYYCAAYGIWYRVDYWGQGTQVTVSS | high polyreactivity
29 | QVQLVESGGGLVQAGGSLRLSCAASGRTFRYNAMGWYRQAPGKERELVAGITYYGGSTSYADSVKGRFTISRDNAKNTVYLQMNSLKPEDTEVYYCNVVYNYYGRFGSWGQGTQVTVSS | high polyreactivity
30 | QVQLVESGGGLVQAGGSLRLSCAASGITFRTNTMGWYRQAPGKERELVAAITRSGVTTYYADSVKGRFTISRDNAKNTVYLQMNSLKPEDTAVYYCAAKSFYAHYDYWGQGTQVTVSS | high polyreactivity
31 | QVQLVESGGGLVQAGVSLRLSCAASGNIFEQYAMGSDRQAPGKERELVARISWRGGSTYYADSVKGRFTISRDNAKNTVYLQLNSLKPEDTAVYYCNALEVVYFGYYPSDYWGQGTQVTVSS | low polyreactivity
32 | QVQLVESGGGLFQAGGSLRLSCAASGRIFGYNAMAGYRQAPGKERELVAVITYSGGSTYYADSVKGRFTISRDNAKNTVYLQMKSLKPEDTAVYYCIARPIDRYSGSGKQWPDYNYWGQGTQFTVSS | low polyreactivity
33 | QVQLVESGGGLVQAGGSLRLSCAASGFTFRGYAMGWYRQAPGIERELVATISRRAASTYYADTVKGRFTISRDNAKNTVYLLMNSLKPEDTAVYYCAKVNRYDDDRDGFGYWGHGTQVTVSS | high polyreactivity
34 | QVQLVESGGGLVQAAGSLRLSCAASGSPFSGYAMGWYRQPPGKQRELVAAISWRGVRTSYADSVKGRFTISRDNAKNRVYLQMNSLKPEDSAVYYCDAVRYITKEFYWGQGTQVTVSS | high polyreactivity
35 | QVQLVESGGGLVQAGGSLRLSCAASGRIFSTYAMGWYRQAPGKERELVAAISWRGSSTYYADSVKGRFTISRDNAKNTVYLQMNSLKPEDTAVYYCNADKANRYDWGQGTQVTVSS | high polyreactivity
36 | QVQLVESGGGLVQAGGSLRLSCAASGSIFQFYTMGWYRQAPGKERELVAAISSTGSTNYADSVKGRFTISRDNAKNTVYLQMNSLKPEDTAVYYCAAVGTYLAGYQFDYWGQGTQVTVSS | low polyreactivity
37 | QVQLVESGGGLVQAGGSLRLSCAASGNTFKGYAMGSYRPAPGKERELVAAISWSGSSTYYADSVKGRFTISRDNAKNTVYLQMNSLKPEDTAVYYCAKAFKYTSPRRPYDYWGQGTQVTVSS | high polyreactivity
38 | QVQLVESGGGLVQAGGSLRLSCAASGIIFERNAMGWYRQAPGKERELVAAITTSGDSTYYADSVKGRFTISRDNAKNTVYLQMNSLKPEDTAVYYCAVEGVIWSFWPYEYWGQGTQVTVSS | high polyreactivity
39 | QVQLVESGGGLVQAGGSLRLSCAASGFTFPPYGMGWYRQAPGKERELVASISIGGGTYYADSVKGRFTISRDNAQNTVYLQMNSLKPEDTPVYYCAADLGQWSYYEFDYWGQGTQVTVSS | low polyreactivity
40 | QVQLVESGGGLVQAGGSLRLSCAASGRTFAFYAMGWYRQAPGKERELVASISSSGDRTYYADSVKGRFTISRDNAKNTVYLQMNSLKPEDTAVYYCAARWSYTYYYWGQGTQVTVSS | high polyreactivity
41 | QVQLVESGGGLVQAGCSLRLSCAASGNTYYSYTMGWYRQAPGKERELVAAITGSGSTYYADSVKGRFTISRDNAKNTVYLQMNSLKPEDTAVYYCASRYVERHTDYYYWGQGTQVTVSS | low polyreactivity
42 | QVQLVESGGGLVQAGGSLRLSCAASGSTFVSNAMGWYRQAPGKERELVAAITTGGSTYYADSVKGRFTISRDNAKNTVYLQMNSLKPEDTAVYYCAADSVLNWFWGYEYWGQGTQVTVSS | low polyreactivity
43 | QVQLVESGGGLVQAGGSLRLSCAASGRIFYLNVMGWYRQAPGKERELVAAITRRDVTTYADSVKGRFTISRDNAKNTVYLQMNSLKPEDTAVYYCNAVYYNRIGFDYWGQVTQVTVSS | low polyreactivity
